Measured values from paper PMC2894018 (2010).

Assays:
[1] = molecular target: HIV-1 Gag fused to the N- or C-terminal fragment of Venus (HIV-1); experiment: split reporter (BiFC, NanoBiT); Venus BiFC in HeLa cells cotransfected with VN and VC fusion plasmids; thirty-six to forty hours after transfection, fixed; percent BiFC positive cells by flow cytometry and fluorescence microscopy
[2] = molecular target: HIV-1 Gag fused to the N- or C-terminal fragment of Venus (HIV-1); experiment: split reporter (BiFC, NanoBiT); Venus BiFC in 293T cells cotransfected with VC and VN chimeric Vpr and Gag plasmids; fixed thirty-six hours after transfection; percent BiFC positive cells by flow cytometry
[3] = molecular target: HIV-1 Vpr Δ44 fused to the N- or C-terminal fragment of Venus (UniProt P12520); experiment: BiFC (bimolecular fluorescence complementation), flow cytometry on cells; conditions: cells cotransfected with VC and VN fusions of the same Vpr mutant; vector control 0.1; parent: 35.7
[4] = molecular target: T1, HIV-1 Vpr from NL43 (Vpr^wt) fused to the N- or C-terminal fragment of Venus (HIV-1 (NL43)), P12520; experiment: split reporter (BiFC, NanoBiT); Venus BiFC in HeLa cells cotransfected with VN and VC fusion plasmids; thirty-six to forty hours after transfection, fixed; percent BiFC positive cells by flow cytometry and fluorescence microscopy; conditions: remark: other sources report otherwise
T1 chain: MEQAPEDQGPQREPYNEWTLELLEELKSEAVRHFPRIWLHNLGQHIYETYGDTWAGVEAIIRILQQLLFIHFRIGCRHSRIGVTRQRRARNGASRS

[5] = molecular target: T1, HIV-1 Vpr from NL43 (Vpr^wt) fused to …; experiment: as above; conditions: remark: other sources report otherwise
[6] = molecular target: T1, HIV-1 Vpr from NL43 (Vpr^wt) fused to …; experiment: split reporter (BiFC, NanoBiT); Venus BiFC competition: VC-Vpr and VN-Vpr plasmids cotransfected with increasing amounts of untagged Vpr plasmid or empty vector; flow cytometry thirty-six hours after transfection; BiFC positive cells with vector backbone set as 100%; conditions: remark: other sources report otherwise

Molecule: HIV-1 Gag fused to the N- or C-terminal fragment of Venus (natural protein)
- percent BiFC positive cells [1]: 30%

Molecule: HIV-1 Vpr E48A fused to the N- or C-terminal fragment of Venus (from UniProt P12520 1-96) (natural protein)
- percent BiFC positive cells (with VC-Gag) [2]: 28%
- percent BiFC positive cells (with VN-Gag) [2]: 29%

Molecule: HIV-1 Vpr R80A fused to the N- or C-terminal fragment of Venus (from UniProt P12520 1-96) (natural protein)
- percent BiFC positive cells (with VC-Gag) [2]: 27%
- percent BiFC positive cells (with VN-Gag) [2]: 33%

Molecule: HIV-1 Vpr from NL43 (Vpr^wt) fused to the N- or C-terminal fragment of Venus (from UniProt P12520 1-96) (natural protein)
- percent BiFC positive cells (with VC-Gag) [2]: 27%
- percent BiFC positive cells (with VN-Gag) [2]: 31%
- percent fluorescent positive cells (venus-C-Gag and venus-N-Vpr^wt) [1]: 29%
- percent fluorescent positive cells (venus-N-Gag and venus-C-Vpr^wt) [1]: 34%

Molecule: HIV-1 Vpr from NL43 (Vpr^wt) fused to the N- or C-terminal fragment of Venus (from UniProt P12520) 44del
- response (% BiFC positive cells) [3]: 1

B1: HIV-1 Vpr from NL43 (Vpr^wt) fused to the N- or C-terminal fragment of Venus, P12520 1-96 (natural protein)
chain: T1 chain
- percent BiFC positive cells [4]: 35%
- percent BiFC positive cells [5]: 26%

B2: untagged HIV-1 Vpr (expressed from pVpr), P12520 1-96 (natural protein)
chain: T1 chain
- percent BiFC positive cells left (VC-Vpr with VN-Vpr, vector backbone as 100%) at a ratio of 1:10 [6]: < 20%
- percent reduction of BiFC positive cells (VC-Vpr with VN-Vpr) at a ratio of 1:2.5 [6]: 40%
